Assay results published in US20220048967A1 (published 2022).
Numbered stars: 1 amine (or outer) side, 2 acyl side, 3 side chain; on linkers, the order of the positions; unused ones are H or OH. Square brackets hold non-standard residues; d marks the D form. Side chains are listed from the residue outwards. Ends that are not written are not given here. * marks the point of attachment. C20 diacid = O=C(O)CCCCCCCCCCCCCCCCCCC(=O)*; αMePhe(2-F) = C[C@](N)(Cc1ccccc1F)C(=O)O; γGlu = O=C(O)[C@H](CCC(=O)[*:2])N[*:1]; αMeF = C[C@](N)(Cc1ccccc1)C(=O)O; AEEA = NCCOCCOCC(=O)O; Aib = CC(C)(N)C(=O)O

Assays:
[1] = target: T1, human gastric inhibitory peptide receptor (GIPR) (human, UniProt P48546 22-466); assay: cell-based or functional assay
T1 sequence (looked up): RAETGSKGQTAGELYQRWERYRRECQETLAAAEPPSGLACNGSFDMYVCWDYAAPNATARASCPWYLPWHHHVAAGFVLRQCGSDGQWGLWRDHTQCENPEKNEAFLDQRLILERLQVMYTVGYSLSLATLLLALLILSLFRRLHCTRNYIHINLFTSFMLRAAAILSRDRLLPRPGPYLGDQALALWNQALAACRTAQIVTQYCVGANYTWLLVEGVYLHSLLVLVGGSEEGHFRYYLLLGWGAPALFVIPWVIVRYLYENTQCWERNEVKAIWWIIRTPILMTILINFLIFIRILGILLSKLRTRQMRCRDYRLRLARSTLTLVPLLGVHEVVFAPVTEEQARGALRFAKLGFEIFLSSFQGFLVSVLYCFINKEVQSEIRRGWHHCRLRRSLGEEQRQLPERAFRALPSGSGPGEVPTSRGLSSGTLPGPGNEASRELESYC

[2] = target: human GLP-1 receptor (GLP-1R) (human, UniProt P43220 24-463); assay: cell-based or functional assay

B1: Example 165 (peptide)
peptide: Y[Aib]EGT[αMePhe(2-F)]TSDHSI[αMeF]LDEK([AEEA-AEEA-γGlu-C20 diacid])AQ[Aib]TFI[dE][αMeF]LI[dE]GGPSSGAPPPS-NH2
modifications: N-terminus assumed
SMILES: CC[C@H](C)[C@H](NC(=O)[C@H](CC(C)C)NC(=O)[C@](C)(Cc1ccccc1)NC(=O)[C@@H](CCC(=O)O)NC(=O)[C@@H](NC(=O)[C@H](Cc1ccccc1)NC(=O)[C@@H](NC(=O)C(C)(C)NC(=O)[C@H](CCC(N)=O)NC(=O)[C@H](C)NC(=O)[C@H](CCCCNC(=O)COCCOCCNC(=O)COCCOCCNC(=O)CC[C@H](NC(=O)CCCCCCCCCCCCCCCCCCC(=O)O)C(=O)O)NC(=O)[C@H](CCC(=O)O)NC(=O)[C@H](CC(=O)O)NC(=O)[C@H](CC(C)C)NC(=O)[C@](C)(Cc1ccccc1)NC(=O)[C@@H](NC(=O)[C@H](CO)NC(=O)[C@H](Cc1c[nH]cn1)NC(=O)[C@H](CC(=O)O)NC(=O)[C@H](CO)NC(=O)[C@@H](NC(=O)[C@](C)(Cc1ccccc1F)NC(=O)[C@@H](NC(=O)CNC(=O)[C@H](CCC(=O)O)NC(=O)C(C)(C)NC(=O)[C@@H](N)Cc1ccc(O)cc1)[C@@H](C)O)[C@@H](C)O)[C@@H](C)CC)[C@@H](C)O)[C@@H](C)CC)C(=O)N[C@H](CCC(=O)O)C(=O)NCC(=O)NCC(=O)N1CCC[C@H]1C(=O)N[C@@H](CO)C(=O)N[C@@H](CO)C(=O)NCC(=O)N[C@@H](C)C(=O)N1CCC[C@H]1C(=O)N1CCC[C@H]1C(=O)N1CCC[C@H]1C(=O)N[C@@H](CO)C(N)=O
With B1 the “hGIPR cAMP EC50 ratio” value [1] was 0.172, the “hGIPR cAMP Rel EC50” value [1] was 1.04 nM and the “hGLP1R cAMP EC50 ratio” value [2] was 0.01. The “hGLP1R cAMP Rel EC50” value [2] was 5.81 nM.

B2: Example 166 (peptide)
peptide: Y[Aib]EGT[αMePhe(2-F)]TSDHSI[αMeF]LDEK([AEEA-AEEA-γGlu-C20 diacid])AQ[Aib]TFI[dE]YLIEGG-NH2
modifications: N-terminus assumed
SMILES: CC[C@H](C)[C@H](NC(=O)[C@H](CC(C)C)NC(=O)[C@H](Cc1ccc(O)cc1)NC(=O)[C@@H](CCC(=O)O)NC(=O)[C@@H](NC(=O)[C@H](Cc1ccccc1)NC(=O)[C@@H](NC(=O)C(C)(C)NC(=O)[C@H](CCC(N)=O)NC(=O)[C@H](C)NC(=O)[C@H](CCCCNC(=O)COCCOCCNC(=O)COCCOCCNC(=O)CC[C@H](NC(=O)CCCCCCCCCCCCCCCCCCC(=O)O)C(=O)O)NC(=O)[C@H](CCC(=O)O)NC(=O)[C@H](CC(=O)O)NC(=O)[C@H](CC(C)C)NC(=O)[C@](C)(Cc1ccccc1)NC(=O)[C@@H](NC(=O)[C@H](CO)NC(=O)[C@H](Cc1c[nH]cn1)NC(=O)[C@H](CC(=O)O)NC(=O)[C@H](CO)NC(=O)[C@@H](NC(=O)[C@](C)(Cc1ccccc1F)NC(=O)[C@@H](NC(=O)CNC(=O)[C@H](CCC(=O)O)NC(=O)C(C)(C)NC(=O)[C@@H](N)Cc1ccc(O)cc1)[C@@H](C)O)[C@@H](C)O)[C@@H](C)CC)[C@@H](C)O)[C@@H](C)CC)C(=O)N[C@@H](CCC(=O)O)C(=O)NCC(=O)NCC(N)=O
B2 was tested, and the “hGIPR cAMP EC50 ratio” value [1] was 0.504, the “hGIPR cAMP Rel EC50” value [1] was 0.355 nM and the “hGLP1R cAMP EC50 ratio” value [2] was 0.0143. For the same binder, the “hGLP1R cAMP Rel EC50” value [2] was 4.08 nM.

B3: Example 163 (peptide)
peptide: H[Aib]EGT[αMePhe(2-F)]TSDYSI[αMeF]LDEK([AEEA-AEEA-γGlu-C20 diacid])AQ[Aib]EFIEYLIEGGPSSGAPPPS-NH2
modifications: N-terminus assumed
SMILES: CC[C@H](C)[C@H](NC(=O)[C@H](CC(C)C)NC(=O)[C@H](Cc1ccc(O)cc1)NC(=O)[C@H](CCC(=O)O)NC(=O)[C@@H](NC(=O)[C@H](Cc1ccccc1)NC(=O)[C@H](CCC(=O)O)NC(=O)C(C)(C)NC(=O)[C@H](CCC(N)=O)NC(=O)[C@H](C)NC(=O)[C@H](CCCCNC(=O)COCCOCCNC(=O)COCCOCCNC(=O)CC[C@H](NC(=O)CCCCCCCCCCCCCCCCCCC(=O)O)C(=O)O)NC(=O)[C@H](CCC(=O)O)NC(=O)[C@H](CC(=O)O)NC(=O)[C@H](CC(C)C)NC(=O)[C@](C)(Cc1ccccc1)NC(=O)[C@@H](NC(=O)[C@H](CO)NC(=O)[C@H](Cc1ccc(O)cc1)NC(=O)[C@H](CC(=O)O)NC(=O)[C@H](CO)NC(=O)[C@@H](NC(=O)[C@](C)(Cc1ccccc1F)NC(=O)[C@@H](NC(=O)CNC(=O)[C@H](CCC(=O)O)NC(=O)C(C)(C)NC(=O)[C@@H](N)Cc1c[nH]cn1)[C@@H](C)O)[C@@H](C)O)[C@@H](C)CC)[C@@H](C)CC)C(=O)N[C@@H](CCC(=O)O)C(=O)NCC(=O)NCC(=O)N1CCC[C@H]1C(=O)N[C@@H](CO)C(=O)N[C@@H](CO)C(=O)NCC(=O)N[C@@H](C)C(=O)N1CCC[C@H]1C(=O)N1CCC[C@H]1C(=O)N1CCC[C@H]1C(=O)N[C@@H](CO)C(N)=O
For B3, the “hGIPR cAMP EC50 ratio” value [1] was 1.29, the “hGIPR cAMP Rel EC50” value [1] was 0.121 nM and the “hGLP1R cAMP EC50 ratio” value [2] was 1.54. The “hGLP1R cAMP Rel EC50” value [2] was 0.0316 nM.

B4: Example 161 (peptide)
peptide: Y[Aib]EGT[αMePhe(2-F)]TSDHSI[αMeF]LDEK([AEEA-AEEA-γGlu-γGlu-C20 diacid])AQ[Aib]TFI[dE]YLIEGGPSSG-NH2
modifications: N-terminus assumed
SMILES: CC[C@H](C)[C@H](NC(=O)[C@H](CC(C)C)NC(=O)[C@H](Cc1ccc(O)cc1)NC(=O)[C@@H](CCC(=O)O)NC(=O)[C@@H](NC(=O)[C@H](Cc1ccccc1)NC(=O)[C@@H](NC(=O)C(C)(C)NC(=O)[C@H](CCC(N)=O)NC(=O)[C@H](C)NC(=O)[C@H](CCCCNC(=O)COCCOCCNC(=O)COCCOCCNC(=O)CC[C@H](NC(=O)CC[C@H](NC(=O)CCCCCCCCCCCCCCCCCCC(=O)O)C(=O)O)C(=O)O)NC(=O)[C@H](CCC(=O)O)NC(=O)[C@H](CC(=O)O)NC(=O)[C@H](CC(C)C)NC(=O)[C@](C)(Cc1ccccc1)NC(=O)[C@@H](NC(=O)[C@H](CO)NC(=O)[C@H](Cc1c[nH]cn1)NC(=O)[C@H](CC(=O)O)NC(=O)[C@H](CO)NC(=O)[C@@H](NC(=O)[C@](C)(Cc1ccccc1F)NC(=O)[C@@H](NC(=O)CNC(=O)[C@H](CCC(=O)O)NC(=O)C(C)(C)NC(=O)[C@@H](N)Cc1ccc(O)cc1)[C@@H](C)O)[C@@H](C)O)[C@@H](C)CC)[C@@H](C)O)[C@@H](C)CC)C(=O)N[C@@H](CCC(=O)O)C(=O)NCC(=O)NCC(=O)N1CCC[C@H]1C(=O)N[C@@H](CO)C(=O)N[C@@H](CO)C(=O)NCC(N)=O
With B4 the “hGIPR cAMP EC50 ratio” value [1] was 0.706, the “hGIPR cAMP Rel EC50” value [1] was 0.254 nM and the “hGLP1R cAMP EC50 ratio” value [2] was 0.0121. The “hGLP1R cAMP Rel EC50” value [2] was 4.8 nM.

B5: Example 164 (peptide)
peptide: YXEGTXTSDHSIXLDEKAQXTFIXYLIXGGPSSGAPPPS
modifications: Y-Aib-EGT-αMeF(2F)-TSDHSI-αMeF-LDEK((2-[2-(2-Amino-ethoxy)-ethoxy]-acetyl)2-(γ-Glu)-CO-(CH2)18-CO2H)AQ-Aib-TFI-(D-Glu)-YLI-(D-Glu)-GGPSSGAPPPS-NH2
In the case of B5, the “hGIPR cAMP EC50 ratio” value [1] is reported as 0.0581, the “hGIPR cAMP Rel EC50” value [1] is reported as 3.09 nM and the “hGLP1R cAMP EC50 ratio” value [2] is reported as 0.00373. The “hGLP1R cAMP Rel EC50” value [2] was 15.6 nM.

B6: Example 162 (peptide)
peptide: Y[Aib]EGT[αMePhe(2-F)]TSDHSI[αMeF]LDEK([AEEA-AEEA-γGlu-γGlu-C20 diacid])AQ[Aib]TFI[dE]HLIEGGPSSG-NH2
modifications: N-terminus assumed
SMILES: CC[C@H](C)[C@H](NC(=O)[C@H](CC(C)C)NC(=O)[C@H](Cc1c[nH]cn1)NC(=O)[C@@H](CCC(=O)O)NC(=O)[C@@H](NC(=O)[C@H](Cc1ccccc1)NC(=O)[C@@H](NC(=O)C(C)(C)NC(=O)[C@H](CCC(N)=O)NC(=O)[C@H](C)NC(=O)[C@H](CCCCNC(=O)COCCOCCNC(=O)COCCOCCNC(=O)CC[C@H](NC(=O)CC[C@H](NC(=O)CCCCCCCCCCCCCCCCCCC(=O)O)C(=O)O)C(=O)O)NC(=O)[C@H](CCC(=O)O)NC(=O)[C@H](CC(=O)O)NC(=O)[C@H](CC(C)C)NC(=O)[C@](C)(Cc1ccccc1)NC(=O)[C@@H](NC(=O)[C@H](CO)NC(=O)[C@H](Cc1c[nH]cn1)NC(=O)[C@H](CC(=O)O)NC(=O)[C@H](CO)NC(=O)[C@@H](NC(=O)[C@](C)(Cc1ccccc1F)NC(=O)[C@@H](NC(=O)CNC(=O)[C@H](CCC(=O)O)NC(=O)C(C)(C)NC(=O)[C@@H](N)Cc1ccc(O)cc1)[C@@H](C)O)[C@@H](C)O)[C@@H](C)CC)[C@@H](C)O)[C@@H](C)CC)C(=O)N[C@@H](CCC(=O)O)C(=O)NCC(=O)NCC(=O)N1CCC[C@H]1C(=O)N[C@@H](CO)C(=O)N[C@@H](CO)C(=O)NCC(N)=O
For B6, the “hGIPR cAMP EC50 ratio” value [1] was 0.0393, the “hGIPR cAMP Rel EC50” value [1] was 4.56 nM and the “hGLP1R cAMP EC50 ratio” value [2] was 0.00161. The “hGLP1R cAMP Rel EC50” value [2] was 36 nM.
